Molecular target: DNA polymerase β polymerase domain with the V303M mutation (UniProt P06766 88-335, V303M, [methyl-13C]methionine labelled)
Experiment: NMR

B1: oxidized form of the XRCC1 N-terminal domain, XRCC1(1-155), containing the C12-C20 disulfide bond (domain or fragment, human, UniProt P18887 2-155, looked up)
chain: PEIRLRHVVSCSSQDSTHCAENLLKADTYRKWRAAKAGEKTISVVLQLEKEEQIHSVDIGNDGSAFVEVLVGSSAGGAGEQDYEVLLVTSSFMSPSESRSGSNPNRVRMFGPDKLVRAAAEKRWDRVKIVCSQPYSKDSPFGLSFVRFHSPPDK
modifications: Cys12-Cys20 disulfide bond; N-terminal carbimate (CO2) adduct on Pro2; U-[15N] labelled
  ratio KD(pol β•X1NTDred)/KD(pol β•X1NTDox): 25.2

— paper PMC5588702 (Structure (London, England : 1993), 2014)
